Results from article PMC10681739, “High-throughput data and modeling reveal insights into the mechanisms of cooperative DNA-binding by transcription factor proteins”.

T1: ETS1 x2 (Homo sapiens, UniProt P14921)
T1 sequence: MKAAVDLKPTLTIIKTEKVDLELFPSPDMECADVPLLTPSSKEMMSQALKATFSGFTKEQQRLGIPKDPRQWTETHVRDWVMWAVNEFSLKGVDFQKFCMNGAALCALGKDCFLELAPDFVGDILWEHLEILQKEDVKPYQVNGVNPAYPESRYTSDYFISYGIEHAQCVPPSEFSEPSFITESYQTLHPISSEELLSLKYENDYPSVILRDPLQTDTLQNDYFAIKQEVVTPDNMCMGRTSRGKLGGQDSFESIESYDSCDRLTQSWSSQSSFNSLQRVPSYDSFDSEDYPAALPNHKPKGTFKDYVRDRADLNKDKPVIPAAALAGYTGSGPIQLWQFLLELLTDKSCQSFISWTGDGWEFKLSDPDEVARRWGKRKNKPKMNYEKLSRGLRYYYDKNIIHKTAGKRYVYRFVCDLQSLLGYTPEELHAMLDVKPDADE


Target: T1, ETS1 x2
Assay: gcPBM; 10 nM ETS1
Details: tags: N-terminal GST (pDEST15), kept (PMC6008103); chain copies: 2; label: surface-attached array probe

Row | Binder | binding signal
1 | Table S4 A row 2202 (dsDNA) DNA 1: AGGGCGATTTCCGCTTTGTCGCGTTTCCTCAAGGCT DNA 2: AGCCTTGAGGAAACGCGACAAAGCGGAAATCGCCCT | 37800 PBM fluorescence, median of replicate spots
2 | Table S4 A row 2168 (dsDNA) DNA 1: CCGGCCTTCCACTTCCGGCGCGGAAGTTGGCGTCAC DNA 2: GTGACGCCAACTTCCGCGCCGGAAGTGGAAGGCCGG | 44800 PBM fluorescence, median of replicate spots
3 | Table S4 A row 743 (dsDNA) DNA 1: CCCCACTTCCTGTTGACACAATAGGCAGGATATTAA DNA 2: TTAATATCCTGCCTATTGTGTCAACAGGAAGTGGGG | 67800 PBM fluorescence, median of replicate spots
4 | Table S4 A row 1679 (dsDNA) DNA 1: AGTGTTCACTTCCTGCCCTCCCATTTCCTGAAGGTC DNA 2: GACCTTCAGGAAATGGGAGGGCAGGAAGTGAACACT | 35600 PBM fluorescence, median of replicate spots
5 | Table S4 A row 1194 (dsDNA) DNA 1: TCGGAACAGTGACTTCCGGCGGAAGAAGAAGCCGGT DNA 2: ACCGGCTTCTTCTTCCGCCGGAAGTCACTGTTCCGA | 32500 PBM fluorescence, median of replicate spots
6 | Table S4 A row 2460 (dsDNA) DNA 1: GGCTGGAAGGCACTTCCGGCGGAAGTTAGAGCTGGG DNA 2: CCCAGCTCTAACTTCCGCCGGAAGTGCCTTCCAGCC | 42900 PBM fluorescence, median of replicate spots
7 | Table S4 A row 1254 (dsDNA) DNA 1: TGAAAATGAGCATTTCCTGTTTCCTCAGGCATTTCT DNA 2: AGAAATGCCTGAGGAAACAGGAAATGCTCATTTTCA | 31500 PBM fluorescence, median of replicate spots
8 | Table S4 A row 2224 (dsDNA) DNA 1: GCACTTCCGCCAGAAGCCGGGTGTGTCCTTCCGGGC DNA 2: GCCCGGAAGGACACACCCGGCTTCTGGCGGAAGTGC | 49200 PBM fluorescence, median of replicate spots
9 | Table S4 A row 2246 (dsDNA) DNA 1: AAAGCACGACCTTCCGGGACCGGAAGTGCCGGTCGA DNA 2: TCGACCGGCACTTCCGGTCCCGGAAGGTCGTGCTTT | 28900 PBM fluorescence, median of replicate spots
10 | Table S4 A row 305 (dsDNA) DNA 1: GCCGCTTCCTGTTCAGAGGACAGACAGCTTCCTGAC DNA 2: GTCAGGAAGCTGTCTGTCCTCTGAACAGGAAGCGGC | 61600 PBM fluorescence, median of replicate spots
11 | Table S4 A row 2195 (dsDNA) DNA 1: TGAAGAAGCACCGGAAATGCTTCCGATCGCTTCATA DNA 2: TATGAAGCGATCGGAAGCATTTCCGGTGCTTCTTCA | 40400 PBM fluorescence, median of replicate spots
